Test results published in patent publication US20140087995A1 (published 2014).
Read-outs that look alike come from different tables or passages of the source. Numbered stars: 1 amine (or outer) side, 2 acyl side, 3 side chain; on linkers, the order of the positions; unused ones are H or OH. Bridge positions count the residues as written; N and C are the ends. Side chains are listed from the residue outwards. Ends that are not written are not given here. * marks the point of attachment. C20 diacid = O=C(O)CCCCCCCCCCCCCCCCCCC(=O)*; γGlu = O=C(O)[C@H](CCC(=O)[*:2])N[*:1]

T1: human calcitonin receptor (human, UniProt P30988 25-474)
T1 sequence (looked up): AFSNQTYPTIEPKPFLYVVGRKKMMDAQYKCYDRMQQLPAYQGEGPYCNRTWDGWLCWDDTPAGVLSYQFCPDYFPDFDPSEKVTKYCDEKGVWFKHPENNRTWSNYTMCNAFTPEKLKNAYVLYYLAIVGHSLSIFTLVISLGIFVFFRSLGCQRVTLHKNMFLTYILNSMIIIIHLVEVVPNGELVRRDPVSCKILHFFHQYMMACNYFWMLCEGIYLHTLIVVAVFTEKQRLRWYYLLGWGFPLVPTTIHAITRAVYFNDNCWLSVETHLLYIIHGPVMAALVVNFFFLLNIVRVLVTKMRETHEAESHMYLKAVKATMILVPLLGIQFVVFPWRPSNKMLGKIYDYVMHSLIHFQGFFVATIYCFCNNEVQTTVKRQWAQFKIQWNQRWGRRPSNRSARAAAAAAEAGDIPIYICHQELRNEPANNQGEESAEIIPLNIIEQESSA

T2: human amylin 3(a) receptor (human calcitonin receptor + RAMP-3) (human, UniProt P30988 25-474; O60896 24-148, limits assumed)
T2 sequence (looked up) 1: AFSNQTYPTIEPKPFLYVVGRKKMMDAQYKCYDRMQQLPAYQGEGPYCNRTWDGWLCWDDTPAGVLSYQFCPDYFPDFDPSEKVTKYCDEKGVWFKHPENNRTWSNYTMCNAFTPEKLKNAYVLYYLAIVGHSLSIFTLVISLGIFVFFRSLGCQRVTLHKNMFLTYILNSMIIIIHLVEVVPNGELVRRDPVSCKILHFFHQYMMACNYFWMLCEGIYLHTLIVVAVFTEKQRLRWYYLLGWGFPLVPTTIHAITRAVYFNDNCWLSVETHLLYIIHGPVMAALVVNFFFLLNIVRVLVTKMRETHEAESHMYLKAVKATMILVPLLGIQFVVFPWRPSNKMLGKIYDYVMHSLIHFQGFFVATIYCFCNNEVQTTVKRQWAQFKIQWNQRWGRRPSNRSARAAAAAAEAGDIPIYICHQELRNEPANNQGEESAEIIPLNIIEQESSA
T2 sequence (looked up) 2: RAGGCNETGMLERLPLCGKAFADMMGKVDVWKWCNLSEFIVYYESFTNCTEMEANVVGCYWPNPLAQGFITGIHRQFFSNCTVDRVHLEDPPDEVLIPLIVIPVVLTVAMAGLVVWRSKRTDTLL

T3: human amylin receptor (amylin 3(a) receptor: human calcitonin receptor with RAMP-3) (human, UniProt P30988 25-474; O60896 24-148, limits assumed)
T3 sequence (looked up) 1: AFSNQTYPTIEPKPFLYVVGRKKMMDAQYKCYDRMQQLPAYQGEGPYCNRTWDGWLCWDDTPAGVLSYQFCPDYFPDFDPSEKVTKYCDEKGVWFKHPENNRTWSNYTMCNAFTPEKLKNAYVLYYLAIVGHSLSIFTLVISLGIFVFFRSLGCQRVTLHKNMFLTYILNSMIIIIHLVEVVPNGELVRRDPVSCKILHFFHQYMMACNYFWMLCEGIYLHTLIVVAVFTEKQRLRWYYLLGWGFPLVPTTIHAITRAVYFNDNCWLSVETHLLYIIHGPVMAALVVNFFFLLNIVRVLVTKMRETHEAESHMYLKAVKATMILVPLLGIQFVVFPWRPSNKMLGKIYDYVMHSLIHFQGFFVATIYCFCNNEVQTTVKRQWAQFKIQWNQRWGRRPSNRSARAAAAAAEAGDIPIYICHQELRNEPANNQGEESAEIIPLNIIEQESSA
T3 sequence (looked up) 2: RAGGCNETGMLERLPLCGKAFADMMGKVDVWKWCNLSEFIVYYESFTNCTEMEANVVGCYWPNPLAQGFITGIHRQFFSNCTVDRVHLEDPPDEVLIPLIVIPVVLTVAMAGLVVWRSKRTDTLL

T4: human calcitonin receptor (human, UniProt P30988 25-474)
T4 sequence (looked up): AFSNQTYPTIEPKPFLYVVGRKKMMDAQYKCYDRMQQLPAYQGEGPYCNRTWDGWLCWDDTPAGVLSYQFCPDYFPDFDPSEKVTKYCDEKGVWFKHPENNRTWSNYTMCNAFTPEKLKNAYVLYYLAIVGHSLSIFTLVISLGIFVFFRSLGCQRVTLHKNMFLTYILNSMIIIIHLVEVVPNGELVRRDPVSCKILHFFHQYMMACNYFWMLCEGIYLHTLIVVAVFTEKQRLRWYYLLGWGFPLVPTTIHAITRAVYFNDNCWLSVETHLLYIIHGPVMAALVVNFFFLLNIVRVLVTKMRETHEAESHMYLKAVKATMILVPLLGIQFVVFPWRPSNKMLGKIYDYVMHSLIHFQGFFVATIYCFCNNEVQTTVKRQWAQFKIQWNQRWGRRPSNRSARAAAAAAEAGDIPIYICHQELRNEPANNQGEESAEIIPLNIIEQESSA


Columns and labels:
[1] = target: T1, human calcitonin receptor; test: cell-based or functional assay
[2] = target: T2, human amylin 3(a) receptor (human …); test: cell-based or functional assay
[3] = target: T2, human amylin 3(a) receptor (human …); test: SPA competition binding, membranes of BHK cells with human calcitonin receptor + RAMP-3, displacement of 125I-rat amylin (Assay V)
Protocol: The binding assay was performed using scintillation proximity assay (SPA) beads (RPNQ0001) from PerkinElmer and cell membranes from the Amylin 3(a)/CRE-luc cells (as described in Assay (II)) were used. Membranes were prepared in the following way; the cells were rinsed with PBS and incubated with Versene for approximately 5 min before harvesting. The cells were flushed with PBS and the cell-suspension was centrifuged for 5 min at 1000 rpm. Cells were homogenized (ultrathurrax) in a buffer containing 20 mM Na-HEPES and 10 mM EDTA (pH 7.4) and centrifuged at 20.000 rpm for 15 min. The resulting pellet was resuspended, homogenized and centrifuged (20.000 rpm, 15 min) in a buffer containing 20 mM Na-HEPES and 0.1 mM EDTA (pH 7.4, buffer 2). The resulting pellet was resuspended in buffer 2 and protein concentration was measured (BCA protein Assay, Pierce). The homogenate was kept cold during the whole procedure. The membranes were kept at −80° C. until use. The assay was performed in a 384 well Optiplate (PerkinElmer) in a total volume of 40 ul. Membranes were mixed with SPA beads. Final concentration of membranes 35 ng/μL final and SPA beads was 0.05 mg/well. Test-compounds were dissolved in DMSO and further diluted in assay buffer (50 mM Hepes, pH 7.4, 1 mM CaCl2, 5 mM MgCl₂, 0.1% OA and 0.02% Tween20). […] The final mixture was incubated with shaking at 400 rpm for 120 min at 25° C. prior to centrifugation (1500 rpm, 10 min). Samples were analyzed on TopCounter™ (Packard). The IC₅₀ was calculated using (one site binding competition analysis) GraphPad Prism5 as a measure of receptor affinity.

[4] = target: T3, human amylin receptor (amylin 3(a) …); test: cell-based or functional assay
[5] = target: T4, human calcitonin receptor; test: cell-based or functional assay; remark: listed apart in the source

Ratio hCT/hAmylin funct. [1] | hAmylin-R funct. EC50 (pM) [2] [pM] | IC50 [3] [nM] | hAmylin-R funct. EC50 (pM) [4] [pM] | Ratio hCT/hAmylin funct. [5] [ratio] | hCTR funct. EC50 (pM) [5] [pM] | Binder
1.2 | 60 | 0.321 |  |  |  | {C20 diacid-γGlu}-KCNTATCATQRLAEFLRHSSPNFGPILPPTNVGSNTP-NH2 (disulfide 2-7; SMILES CC[C@H](C)[C@H](NC(=O)[C@@H]1CCCN1C(=O)CNC(=O)[C@H](Cc1ccccc1)NC(=O)[C@H](CC(N)=O)NC(=O)[C@@H]1CCCN1C(=O)[C@H](CO)NC(=O)[C@H](CO)NC(=O)[C@H](Cc1c[nH]cn1)NC(=O)[C@H](CCCNC(=N)N)NC(=O)[C@H](CC(C)C)NC(=O)[C@H](Cc1ccccc1)NC(=O)[C@H](CCC(=O)O)NC(=O)[C@H](C)NC(=O)[C@H](CC(C)C)NC(=O)[C@H](CCCNC(=N)N)NC(=O)[C@H](CCC(N)=O)NC(=O)[C@@H](NC(=O)[C@H](C)NC(=O)[C@@H]1CSSC[C@H](NC(=O)[C@H](CCCCN)NC(=O)CC[C@H](NC(=O)CCCCCCCCCCCCCCCCCCC(=O)O)C(=O)O)C(=O)N[C@@H](CC(N)=O)C(=O)N[C@@H]([C@@H](C)O)C(=O)N[C@@H](C)C(=O)N[C@@H]([C@@H](C)O)C(=O)N1)[C@@H](C)O)C(=O)N[C@@H](CC(C)C)C(=O)N1CCC[C@H]1C(=O)N1CCC[C@H]1C(=O)N[C@H](C(=O)N[C@@H](CC(N)=O)C(=O)N[C@H](C(=O)NCC(=O)N[C@@H](CO)C(=O)N[C@@H](CC(N)=O)C(=O)N[C@H](C(=O)N1CCC[C@H]1C(N)=O)[C@@H](C)O)C(C)C)[C@@H](C)O, disulfide and C-terminal amide as told for human amylin and the amide resins of the synthesis; also called compound 4)
 |  |  | 216 | 9.9 | 2140 | K([γGlu-γGlu-C20 diacid])CNTATCATQRLAEFLRHSSPNFGAIPSSTNVGPNTF-NH2 (disulfide 2-7; N-terminus assumed; SMILES CC[C@H](C)[C@H](NC(=O)[C@H](C)NC(=O)CNC(=O)[C@H](Cc1ccccc1)NC(=O)[C@H](CC(N)=O)NC(=O)[C@@H]1CCCN1C(=O)[C@H](CO)NC(=O)[C@H](CO)NC(=O)[C@H](Cc1c[nH]cn1)NC(=O)[C@H](CCCNC(=N)N)NC(=O)[C@H](CC(C)C)NC(=O)[C@H](Cc1ccccc1)NC(=O)[C@H](CCC(=O)O)NC(=O)[C@H](C)NC(=O)[C@H](CC(C)C)NC(=O)[C@H](CCCNC(=N)N)NC(=O)[C@H](CCC(N)=O)NC(=O)[C@@H](NC(=O)[C@H](C)NC(=O)[C@@H]1CSSC[C@H](NC(=O)[C@@H](N)CCCCNC(=O)CC[C@H](NC(=O)CC[C@H](NC(=O)CCCCCCCCCCCCCCCCCCC(=O)O)C(=O)O)C(=O)O)C(=O)N[C@@H](CC(N)=O)C(=O)N[C@@H]([C@@H](C)O)C(=O)N[C@@H](C)C(=O)N[C@@H]([C@@H](C)O)C(=O)N1)[C@@H](C)O)C(=O)N1CCC[C@H]1C(=O)N[C@@H](CO)C(=O)N[C@@H](CO)C(=O)N[C@H](C(=O)N[C@@H](CC(N)=O)C(=O)N[C@H](C(=O)NCC(=O)N1CCC[C@H]1C(=O)N[C@@H](CC(N)=O)C(=O)N[C@H](C(=O)N[C@@H](Cc1ccccc1)C(N)=O)[C@@H](C)O)C(C)C)[C@@H](C)O)
